From patent CN116813757A (INST MICROBIOLOGY CAS, dated 2023)

Target: SARS-CoV-2原始毒株的RBD蛋白 (SARS-CoV-2 RBD-his蛋白) (SARS-CoV-2 original strain, UniProt P0DTC2 319-541)

B1: 单链纳米抗体R14 (R14-his蛋白) (VHH)
VHH: QVQLQESGGGLVQPGGSLRLSCAVSGFTLDYYAIGWFRQAPGKEREGVSCISSSDGSTSYADSVKGRFTISRDNAKNTVYLQMNSLKPEDTALYYCAATPATYYSGRYYYQCPAGGMDYWGQGTQVTVSS
Kd: < 0.1 nM
